Residue numbers refer to the chain shown, from its start.
B1: anti-CD33 antibody 6C7H5 (antibody, V domains shown)
VH: EVQLVESGGGLVQPGGSLRLSCAGSGFTFSNYCMNWVRQAPGKGLEWVAEIRLKSNNYVTNYAASVKGRFTISRDDSKNSVYLQMNSLKTEDTGVYYCTRDGYYVPFAYWGQGTLVTVSS
VL: QLVLTQSPSASASLGASVKLTCTLSSQHSTYTIEWYQQQPEKGPRYLMELKKDGSHSTGDGIPDRFSGSSSGAERYLTISSLQSEDEADYYCGVGDTIKEQFVYVFGGGTKLTVL
notes: Humanized 6C7; VH/VL only; also called parental humanized antibody
B2: anti-CD33 antibody 6C7H8 (antibody, IgG1, V domains shown)
VH: B1 VH with D101A
VL: B1 VL with D53E
notes: VH/VL only; also called 6C7H8 IgG1; parental antibody
B3: anti-CD33 antibody 6C7H27 (antibody, V domains shown)
VH: B1 VH with N31D, C33T, D101A
VL: B1 VL with D53E
notes: VH/VL only
B4: anti-CD33 antibody 6C7H22 (antibody, V domains shown)
VH: B1 VH with C33T, D101A
VL: B1 VL with D53E
notes: VH/VL only
B5: anti-CD33 antibody 6C7H10 (antibody, IgG1, V domains shown)
VH: B1 VH with G24A, N31E, C33A, A49G, D101A
VL: B1 VL with D53E
notes: VH/VL only; also called 6C7H10 IgG1
B6: anti-CD33 antibody 6C7H13 (antibody, V domains shown)
VH: B1 VH with C33F, D101A
VL: B1 VL with D53E
notes: VH/VL only
B7: 6C7H54 IgG2 (antibody)
heavy: EVQLVESGGGLVQPGGSLRLSCAGSGFTFSNYEMNWVRQAPGKGLEWVAEIRLKSNNYVTNYAASVKGRFTISRDDSKNSVYLQMNSLKTEDTGVYYCTRAGYYVPFAYWGQGTLVTVSSASTKGPSVFPLAPCSRSTSESTAALGCLVKDYFPEPVTVSWNSGALTSGVHTFPAVLQSSGLYSLSSVVTVPSSNFGTQTYTCNVDHKPSNTKVDKTVERKCCVECPPCPAPPVAGPSVFLFPPKPKDTLMISRTPEVTCVVVDVSHEDPEVQFNWYVDGVEVHNAKTKPREEQFNSTFRVVSVLTVVHQDWLNGKEYKCKVSNKGLPAPIEKTISKTKGQPREPQVYTLPPSREEMTKNQVSLTCLVKGFYPSDIAVEWESNGQPENNYKTTPPMLDSDGSFFLYSKLTVDKSRWQQGNVFSCSVMHEALHNHYTQKSLSLSPGK
light: QLMLTQSPSASASLGASVKLTCTLSSQHSTYTIEWYQQQPGKGPRYLMELKKEGSHSTGDGIPDRFSGSSSGAERYLTISSLQSEDEADYYCGVGHTIKEQFVYVFGGGTKLTVLGQPKAAPSVTLFPPSSEELQANKATLVCLISDFYPGAVTVAWKADSSPVKAGVETTTPSKQSNNKYAASSYLSLTPEQWKSHRSYSCQVTHEGSTVEKTVAPTECS
B8: 6C7H10 IgG1 LALAPS (antibody)
chain 1: not shown
chain 2: B1 VL with D53E
B9: 6C7H10 IgG1 SELF (antibody)
chain 1: not shown
chain 2: B1 VL with D53E
B10: 6C7H54 IgG1 PS (antibody)
chain 1: not shown
chain 2: B1 VL with V3M, E41G, D53E, D96H
B11: anti-CD33 antibody 6C7H30 (antibody, V domains shown)
VH: B1 VH with C33W, D101A
VL: B1 VL with D53E
notes: VH/VL only
B12: anti-CD33 antibody 6C7H19 (antibody, V domains shown)
VH: B1 VH with C33R, D101A
VL: B1 VL with D53E
notes: VH/VL only
B13: anti-CD33 antibody 6C7H3 (antibody, V domains shown)
VH: B1 VH with G24A, A49G, V81L, G94A, T99A
VL: B1 VL
notes: Humanized 6C7; VH/VL only
B14: anti-CD33 antibody 6C7H7 (antibody, V domains shown)
VH: B1 VH with V81L, G94A
VL: B1 VL with V18A, L47V, L82I, Y91I, L112V
notes: Humanized 6C7; VH/VL only
B15: anti-CD33 antibody 6C7H4 (antibody, V domains shown)
VH: B1 VH with V81L, G94A
VL: B1 VL
notes: Humanized 6C7; VH/VL only
B16: anti-CD33 antibody 6C7H6 (antibody, V domains shown)
VH: B1 VH with G24A, A49G, V81L, G94A, T99A
VL: B1 VL with V18A, L47V, L82I, Y91I, L112V
notes: Humanized 6C7; VH/VL only
B17: anti-CD33 antibody 6C7H2 (antibody, V domains shown)
VH: B1 VH
VL: B1 VL with Y36H, E49K
notes: Humanized 6C7; VH/VL only
B18: anti-CD33 antibody 6C7H1 (antibody, V domains shown)
VH: B1 VH with G24A, A49G, V81L, G94A, T99A
VL: B1 VL with Y36H, E49K
notes: Humanized 6C7; VH/VL only

molecular target: T1, human CD33 on primary human dendritic cells (human, UniProt P20138 18-364); experiment: cell-based or functional assay
T1 sequence (P20138 18-364): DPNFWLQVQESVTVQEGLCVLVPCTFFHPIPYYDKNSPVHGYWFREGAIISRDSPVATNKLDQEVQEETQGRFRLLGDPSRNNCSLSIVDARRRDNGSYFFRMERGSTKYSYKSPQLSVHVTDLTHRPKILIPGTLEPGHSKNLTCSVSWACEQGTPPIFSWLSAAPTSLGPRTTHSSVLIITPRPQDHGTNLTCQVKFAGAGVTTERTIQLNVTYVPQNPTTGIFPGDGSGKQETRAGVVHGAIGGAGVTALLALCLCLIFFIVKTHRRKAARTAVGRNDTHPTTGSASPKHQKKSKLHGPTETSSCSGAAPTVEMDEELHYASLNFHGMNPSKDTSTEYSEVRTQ

Receptor downregulation, (EC50) (pM) | Binder
42.4 pM | B1
77.9 pM | B2

molecular target: T1, human CD33 on primary human dendritic …; experiment: cell-based or functional assay; remark: another data set of the same source

Maximal reduction in CD33 (% remaining) | Receptor downregulation, (EC50) (pM) | Fold increase in potency compared to 6C7H5 | Binder
21 % remaining | 42.4 pM | – | B1
21.5 % remaining | 77.9 pM | 0.5 fold | B2
– | 1520 pM | 0.03 fold | B3
– | 1230 pM | 0.03 fold | B4
21.2 % remaining | 778 pM | 0.1 fold | B5
– | 3640 pM | 0.01 fold | B6

molecular target: T1, human CD33 on primary human dendritic …; experiment: cell-based or functional assay; remark: another data set of the same source

Receptor downregulation, (EC50) (pM) | Binder
42.4 pM | B1

molecular target: T1, human CD33 on primary human dendritic …; experiment: cell-based or functional assay; remark: another data set of the same source

Fold change in potency from IgG1 | Maximal downregulation (% CD33 remaining) | Receptor downregulation, (pM, EC50) | Binder
1.2 fold | 14.3 % CD33 remaining | 25.3 pM | B7
0.58 fold | 62.3 % CD33 remaining | 1350 pM | B8
25.8 fold | 19.6 % CD33 remaining | 30.1 pM | B9
2.4 fold | 23.9 % CD33 remaining | 12.6 pM | B10
– | 21.5 % CD33 remaining | 77.9 pM | B2
– | 21.2 % CD33 remaining | 778 pM | B5

molecular target: T2, recombinant human CD33 protein (Sino Biologicals) (human, UniProt P20138 18-259); experiment: ELISA, plate coated with recombinant CD33
T2 construct: Bought protein; also called recombinant CD33
T2 sequence (P20138 18-259 limits assumed): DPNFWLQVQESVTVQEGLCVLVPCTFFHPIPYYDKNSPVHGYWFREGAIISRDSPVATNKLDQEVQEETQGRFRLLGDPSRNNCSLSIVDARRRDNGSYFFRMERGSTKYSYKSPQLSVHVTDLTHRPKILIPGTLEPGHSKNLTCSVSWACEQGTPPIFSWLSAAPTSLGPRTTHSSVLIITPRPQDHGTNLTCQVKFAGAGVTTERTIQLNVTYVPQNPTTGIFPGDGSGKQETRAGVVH

EC50 | Binder
0.16 nM | B1
0.21 nM | B2

molecular target: T3, recombinant cynomolgus CD33 protein (NovoProtein) (cynomolgus); experiment: ELISA, plate coated with recombinant CD33
T3 construct: Bought protein; also called cyno CD33
T3 sequence (chain, as listed by the source limits assumed): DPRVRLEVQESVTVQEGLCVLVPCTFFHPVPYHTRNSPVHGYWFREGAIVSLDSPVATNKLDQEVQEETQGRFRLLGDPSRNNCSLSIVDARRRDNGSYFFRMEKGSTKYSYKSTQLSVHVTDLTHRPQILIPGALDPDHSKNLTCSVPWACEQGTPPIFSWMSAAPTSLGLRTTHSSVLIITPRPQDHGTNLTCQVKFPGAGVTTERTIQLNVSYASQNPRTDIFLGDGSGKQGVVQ

EC50 | Relative maximal binding (cyno/human) | Relative potency (human/cyno) | Binder
3.84 nM | 0.5 | 0.04 | B1
– | 0.06 | – | B2

molecular target: T1, human CD33 on primary human dendritic …; experiment: flow cytometry, primary human dendritic cells, 2 ug/mL

binding relative to the parental antibodies | Binder
< 60% | B3
< 60% | B11
< 60% | B4
< 60% | B6
< 60% | B12

molecular target: T2, recombinant human CD33 protein (Sino …); experiment: BLI (ForteBio), antibody on anti-human Fc sensor, CD33 10 nM
Description: Affinity parameters of the antibody variants for human CD33 were measured by BioLayer Interferometry in a ForteBio assay according to standard techniques (Estep et al. (2013) MAbs 5(2): 270-8) and were compared to those of the parental antibody (antibody 6C7H8) and the parental humanized antibody (antibody 6C71H5). Briefly, the antibodies were captured on anti-human Fc Biosensors (Pall ForteBio). Recombinant human CD33 (10 nM, Sino Biologicals) was then bound to the captured anti-CD33 surface (200 s association time, 1200 s dissociation time). Local fitting was used to extract association and dissociation rate constants (kₐ and kd, respectively) for each antibody. Apparent affinity constants (KD) were calculated from the ratio kd/kₐ.

Kd | koff | kon | Binder
0.436 nM | 0.00012 s⁻¹ | 275000 M⁻¹ s⁻¹ | B1
0.722 nM | 0.000413 s⁻¹ | 572000 M⁻¹ s⁻¹ | B2
2.73 nM | 0.00365 s⁻¹ | 1.34e+06 M⁻¹ s⁻¹ | B3
1.27 nM | 0.0059 s⁻¹ | 4.65e+06 M⁻¹ s⁻¹ | B11
0.467 nM | 0.00113 s⁻¹ | 2.41e+06 M⁻¹ s⁻¹ | B4
0.561 nM | 0.000823 s⁻¹ | 1.47e+06 M⁻¹ s⁻¹ | B5
3.88 nM | 0.0031 s⁻¹ | 801000 M⁻¹ s⁻¹ | B6
0.238 nM | 0.00114 s⁻¹ | 4.79e+06 M⁻¹ s⁻¹ | B12

molecular target: T1, human CD33 on primary human dendritic …; experiment: flow cytometry on primary human dendritic cells, antibody dilutions, fluorescent anti-human IgG secondary
Description: The 7 humanized anti-CD33 antibodies of 6C7 were evaluated for binding to primary dendritic cells by flow cytometry, and binding was compared to that of an anti-CD33 6C7 chimeric antibody that contained the variable heavy chain sequence and the variable light chain sequence of anti-CD33 antibody 6C7. Monocytes were isolated from blood from healthy human donors using the RosetteSep™ monocyte isolation antibody cocktail (StemCell Technologies). The isolated monocytes were differentiated into dendritic cells with 100 ng/mL GM-CSF and 100 ng/mL IL-4 (Peprotech). Dendritic cells were incubated with dilutions of the anti-CD33 antibodies for 30 minutes on ice in the dark, followed by a 30-minute incubation with a fluorescently-conjugated anti-human IgG secondary antibody. Cells were washed twice in FACS buffer (PBS+2% FBS, 2 mM EDTA), and flow cytometry was performed on a BD FACS Canto. Data were analyzed using FlowJo software (Ashland, OR).

binding result | Binder
binds | B13
binds | B14
binds | B15
binds | B16
no binding (tested: about 2 ug/mL) | B17
no binding (tested: about 1.2 ug/mL) | B18

Reference: patent US20250270319A1 (Alector, published 2025)
